Reference: publication PMC10019781, “Structure and function of Plasmodium actin II in the parasite mosquito stages” (PLOS Pathogens, 2023)

Legend:
[1] = molecular target: the molecule itself; assay: dynamic light scattering; polymerizing conditions, without JAS; 1.3 mg/ml, 70 ul, 4°C
[2] = molecular target: the molecule itself; assay: dynamic light scattering; non-polymerizing conditions; 1.3 mg/ml, 70 ul, 4°C

B1: Plasmodium actin I (natural protein)
chain: not shown
notes: actin I of Plasmodium; its cited filament structures are of P. falciparum actin I; in the pyrene assays a mixture of pyrene-labelled and unlabelled actin was used; also called F-actin I
[1]
  stoichiometry N: 2

B2: Plasmodium falciparum actin II (natural protein)
chain: not shown
modifications: methyl-histidine at H73 (around 90% of actin II when expressed in insect cells)
notes: actin II of Plasmodium falciparum, PlasmoDB PF3D7_1412500; gene synthesized and codon-optimized for insect cells; In the pyrene assays (critical concentration, polymerization) a mixture of pyrene-labelled and unlabelled actin (ratio 1:3) was used; The first four N-terminal residues are not resolved in the filament maps; also called PfActII; F-actin II; source: Sf9 (Spodoptera frugiperda) cells, …
[2]
  stoichiometry N: 2
